Source: patent US9187525B2, “Methods of treating ophthalmic diseases using NPR-B agonists” (Shire Orphan Therapies GmbH, dated 2015)
Numbered stars: 1 amine (or outer) side, 2 acyl side, 3 side chain; on linkers, the order of the positions; unused ones are H or OH. Bridge positions count the residues as written; N and C are the ends. Square brackets hold non-standard residues; d marks the D form. Primed or numbered codes have the meaning given here. Ends that are not written are not given here. * marks the point of attachment. 5118 = (1R,2S)-ethyl 2-aminocyclohexanecarboxylate, CCOC(=O)[C@@H]1CCCC[C@@H]1N*; 5119 = (1R,2R)-ethyl 2-aminocyclohexanecarboxylate, CCOC(=O)[C@@H]1CCCC[C@H]1N*; 5116 = (1S,2R)-2-aminocyclohexanecarboxamide, NC(=O)[C@H]1CCCC[C@H]1N*; 1860″ = (1R,2R)-2-methylcyclohexanamine, C[C@@H]1CCCC[C@H]1N*; 5164 = (S)-3-amino-1-ethylazepan-2-one, CCN1CCCC[C@H](N*)C1=O; Sni = (S)-nipecotic acid, O=C([C@H]1CCCN([*:1])C1)[*:2]; 5121 = 1-propyl-butyl-amine, CCCC(CCC)N*; Octanoyl = CCCCCCCC(=O)*; 1859 = not defined here; 1906 = not defined here; 1934 = not defined here; 5163 = not defined here; 873 = not defined here; Che = not defined here; ala = not defined here; pro = not defined here; Occ = octanoic acid

T1: natriuretic peptide receptor-A (Homo sapiens)
T1 chain: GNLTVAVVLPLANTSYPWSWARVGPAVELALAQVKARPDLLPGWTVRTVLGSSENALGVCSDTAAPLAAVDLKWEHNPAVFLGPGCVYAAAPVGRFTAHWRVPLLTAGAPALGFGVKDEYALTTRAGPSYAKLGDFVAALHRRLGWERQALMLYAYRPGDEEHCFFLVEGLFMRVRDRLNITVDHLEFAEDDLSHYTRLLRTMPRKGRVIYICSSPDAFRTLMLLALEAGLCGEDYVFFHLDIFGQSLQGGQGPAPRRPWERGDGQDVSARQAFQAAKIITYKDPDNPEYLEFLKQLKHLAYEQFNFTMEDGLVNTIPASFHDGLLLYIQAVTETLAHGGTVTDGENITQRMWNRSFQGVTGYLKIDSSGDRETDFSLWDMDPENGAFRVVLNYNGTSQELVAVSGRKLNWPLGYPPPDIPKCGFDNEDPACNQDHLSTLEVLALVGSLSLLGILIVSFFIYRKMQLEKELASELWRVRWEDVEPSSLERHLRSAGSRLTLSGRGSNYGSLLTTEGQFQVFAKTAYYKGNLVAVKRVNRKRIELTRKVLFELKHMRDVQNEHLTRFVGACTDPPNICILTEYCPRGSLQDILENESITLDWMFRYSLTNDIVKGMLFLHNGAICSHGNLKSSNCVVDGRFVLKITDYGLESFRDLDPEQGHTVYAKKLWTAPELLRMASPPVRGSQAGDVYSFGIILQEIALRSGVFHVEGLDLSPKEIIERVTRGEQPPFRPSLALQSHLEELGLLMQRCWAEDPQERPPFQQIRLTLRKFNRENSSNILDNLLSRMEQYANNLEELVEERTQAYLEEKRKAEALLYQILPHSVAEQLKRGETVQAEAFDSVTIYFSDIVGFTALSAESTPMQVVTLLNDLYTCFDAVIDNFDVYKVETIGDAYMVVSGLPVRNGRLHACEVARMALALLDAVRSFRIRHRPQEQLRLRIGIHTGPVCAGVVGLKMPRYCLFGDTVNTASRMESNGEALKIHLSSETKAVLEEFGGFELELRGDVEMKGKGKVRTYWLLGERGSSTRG

T2: natriuretic peptide receptor-B (human)
T2 chain: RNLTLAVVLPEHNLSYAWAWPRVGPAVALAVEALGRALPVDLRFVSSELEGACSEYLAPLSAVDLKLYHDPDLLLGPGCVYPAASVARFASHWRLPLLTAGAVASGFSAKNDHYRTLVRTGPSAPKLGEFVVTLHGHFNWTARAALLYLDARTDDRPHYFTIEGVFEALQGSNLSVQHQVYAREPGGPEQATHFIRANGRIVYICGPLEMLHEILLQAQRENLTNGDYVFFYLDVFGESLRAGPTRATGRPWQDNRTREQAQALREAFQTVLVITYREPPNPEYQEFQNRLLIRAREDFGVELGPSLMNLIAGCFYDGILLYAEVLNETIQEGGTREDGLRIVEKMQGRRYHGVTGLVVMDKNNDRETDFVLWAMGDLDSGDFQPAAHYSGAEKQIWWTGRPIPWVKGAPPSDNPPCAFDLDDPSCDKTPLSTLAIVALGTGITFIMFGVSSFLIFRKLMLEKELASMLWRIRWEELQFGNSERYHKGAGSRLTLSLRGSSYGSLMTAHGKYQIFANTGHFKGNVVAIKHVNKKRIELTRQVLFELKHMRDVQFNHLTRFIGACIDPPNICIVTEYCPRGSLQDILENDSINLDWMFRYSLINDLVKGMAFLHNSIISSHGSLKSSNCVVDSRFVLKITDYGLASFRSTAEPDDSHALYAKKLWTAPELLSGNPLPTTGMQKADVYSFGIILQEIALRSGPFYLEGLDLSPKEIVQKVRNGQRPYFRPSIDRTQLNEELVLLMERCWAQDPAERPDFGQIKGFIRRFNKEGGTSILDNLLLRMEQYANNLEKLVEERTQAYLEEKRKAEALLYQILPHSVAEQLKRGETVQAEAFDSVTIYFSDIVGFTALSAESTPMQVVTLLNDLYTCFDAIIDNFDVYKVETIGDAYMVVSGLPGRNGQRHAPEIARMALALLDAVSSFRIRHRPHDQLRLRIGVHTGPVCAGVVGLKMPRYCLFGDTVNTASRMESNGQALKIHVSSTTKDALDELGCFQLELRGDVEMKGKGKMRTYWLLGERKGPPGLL


Target: T1, natriuretic peptide receptor-A
Assay: cell-based or functional assay

Row | Binder | EC50, cyclic GMP production in NPR-A transfected 293-T cells [µM]
1 | MCHFGGRMDRISCYR [mini-ANP] | 1.54
2 | GLSKGCFGLKLDRIGSMSGLGC (ligand, disulfide 6-22 (inferred)) [C-type natriuretic peptide] | 1.6

Target: T2, natriuretic peptide receptor-B
Assay: cell-based or functional assay

Row | Binder | EC50, cyclic GMP production in GTM-3 cells [µM] | Emax, cyclic GMP production in GTM-3 cells [%]
3 | SLRRSSCFGGRMDRIGAQSGLGCNSFRY (ligand, disulfide 7-23 (inferred)) [atrial natriuretic peptide] | 1.63 | 15
4 | MCHFGGRMDRISCYR [mini-ANP] | > 45 | 0
5 | GLSKGCFGLKLDRIGSMSGLGC (ligand, disulfide 6-22 (inferred)) [C-type natriuretic peptide] | 0.0388 | 100

Target: T2, natriuretic peptide receptor-B
Assay: cell-based or functional assay
Remark: another data set of the same source

Row | Binder | EC50 group, cGMP in GTM-3 cells [µM]
6 | Octanoyl-AAFGLKLDR[1906] (not fully specified (some residues); printed as Occ-ala-ala-Phe-Gly-Leu-Lys-Leu-Asp-Arg-1906; reading uncertain) [JAL-0801] | ≤ 5
7 | [Occ][Sni]FGLPLDRI-NH2 [JAL-0837] | ≤ 15
8 | Octanoyl-[ala]FGLPLDRI-NH2 (reading uncertain; also: printed as Occ-ala-Phe-Gly-Leu-Pro-Leu-Asp-Arg-Ile-NH2) [JAL-0835] | ≤ 15
9 | Octanoyl-[ala][ala]FGLKLDR[5163] (reading uncertain; also: printed as Occ-ala-ala-Phe-Gly-Leu-Lys-Leu-Asp-Arg-5163) [JAL-0833] | ≤ 15
10 | Octanoyl-AAFGLKLDR[873] (not fully specified (some residues); printed as Occ-ala-ala-Phe-Gly-Leu-Lys-Leu-Asp-Arg-873; reading uncertain) [JAL-0824] | ≤ 15
11 | Octanoyl-AFGLKLDR[Che] (not fully specified (some residues); printed as Occ-ala-Phe-Gly-Leu-Lys-Leu-Asp-Arg-Che; reading uncertain) [JAL-0840] | ≤ 15
12 | Octanoyl-AFGLKLDR-{1860″} (not fully specified (some residues); printed as Occ-ala-Phe-Gly-Leu-Lys-Leu-Asp-Arg-1860) [JAL-0839] | ≤ 5
13 | Octanoyl-AFGLKLDR-5121 (not fully specified (some residues); printed as Occ-ala-Phe-Gly-Leu-Lys-Leu-Asp-Arg-5121) [JAL-0841] | ≤ 15
14 | Octanoyl-AAFGLKLDR[1859] (not fully specified (some residues); printed as Occ-ala-ala-Phe-Gly-Leu-Lys-Leu-Asp-Arg-1859; reading uncertain) [JAL-0798] | ≤ 15
15 | Octanoyl-[ala][ala]FGLKLDR[5116] (reading uncertain; also: printed as Occ-ala-ala-Phe-Gly-Leu-Lys-Leu-Asp-Arg-5116) [JAL-0825] | ≤ 15
16 | Octanoyl-[ala][ala]FGLKLDR[5118] (reading uncertain; also: printed as Occ-ala-ala-Phe-Gly-Leu-Lys-Leu-Asp-Arg-5118) [JAL-0831] | ≤ 15
17 | Octanoyl-AAFGLKLDR[Che] (not fully specified (some residues); printed as Occ-ala-ala-Phe-Gly-Leu-Lys-Leu-Asp-Arg-Che; reading uncertain) [JAL-0797] | ≤ 5
18 | Octanoyl-AAFGLKLDR[1934] (not fully specified (some residues); printed as Occ-ala-ala-Phe-Gly-Leu-Lys-Leu-Asp-Arg-1934; reading uncertain) [JAL-0799] | ≤ 5
19 | Octanoyl-[pro]FGLPLDRI-NH2 (reading uncertain; also: printed as Occ-pro-Phe-Gly-Leu-Pro-Leu-Asp-Arg-Ile-NH2) [JAL-0836] | ≤ 15
20 | Octanoyl-[ala][ala]FGLKLDR-5164 (reading uncertain; also: printed as Occ-ala-ala-Phe-Gly-Leu-Lys-Leu-Asp-Arg-5164) [JAL-0834] | ≤ 15
21 | Octanoyl-[ala][ala]FGLKLDR[5119] (reading uncertain; also: printed as Occ-ala-ala-Phe-Gly-Leu-Lys-Leu-Asp-Arg-5119) [JAL-0826] | ≤ 5
